Assay results taken from patent EP1019524B1.

Biological target: HeLa cell PP1α (cellular PP1α in S10 fractions of HeLa cells) (human) (UniProt P62136)
Assay: cell-based or functional assay

Chain of HeLa cell PP1α (cellular PP1α in S10 fractions of HeLa cells) (human) (P62136 2-330): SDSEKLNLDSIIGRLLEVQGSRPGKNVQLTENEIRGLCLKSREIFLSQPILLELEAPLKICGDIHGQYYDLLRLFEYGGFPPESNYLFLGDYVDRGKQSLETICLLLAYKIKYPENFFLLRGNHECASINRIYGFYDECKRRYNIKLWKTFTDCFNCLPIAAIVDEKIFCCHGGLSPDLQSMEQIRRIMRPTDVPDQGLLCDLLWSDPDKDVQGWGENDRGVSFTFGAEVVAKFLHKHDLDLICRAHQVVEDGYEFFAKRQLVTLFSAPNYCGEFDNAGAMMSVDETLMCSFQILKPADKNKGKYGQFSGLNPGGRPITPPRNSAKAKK

γ134.5 protein of HSV-1(F), from lysates of HSV-1(F) infected cells (from UniProt P36313 1-248)
32P-phosphorylase phosphatase activity of HSV-1(F)-infected cells against mock-infected cells (fold of mock-infected cells): 0.5
eIF-2(α32P) phosphatase activity of S10 fractions of wild type infected HeLa cells against mock-infected cells: 3000 fold

γ134.5-MyD116 chimeric protein expressed by recombinant virus R8300 (from UniProt P36313 1-175; P17564 540-657)
eIF-2(α32P) phosphatase activity of S10 fractions of R8300 infected HeLa cells against mock-infected cells: 50 fold

protein phosphatase Inhibitor 2
50% reduction in the rate of dephosphorylation of eIF-2(α32P) by the S10 fraction from R8300 virus-infected cells: 120 µg/mL
50% reduction in the rate of dephosphorylation of eIF-2(α32P) by the S10 fraction from wild-type virus-infected cells: 90 µg/mL
